Experiments:
[1] = biological target: N. salsuginis TatC (GFP-His removed) (Nitratifractor salsuginis); experiment: cryo-EM structure; co-expressed TatBC complexes (E. coli, N. salsuginis, M. xanthus) and N. salsuginis TatAC complex, solubilised and purified in GDN
[2] = biological target: N. salsuginis TatBC complex (Nitratifractor salsuginis); experiment: cryo-EM structure; 50 μl N. salsuginis TatBC (A280nm = 8.0) mixed with 50 μl CueO peptide (1 mg/ml), 12 h at 4 °C, in GDN
[3] = biological target: T1, E. coli TatC of the His-tagged TatBC complex (TatBC_(His)6) (Escherichia coli), P69423; experiment: cryo-EM structure; co-expressed TatBC complexes (E. coli, N. salsuginis, M. xanthus) and N. salsuginis TatAC complex, solubilised and purified in GDN; conditions: remark: other sources report otherwise
T1 chain: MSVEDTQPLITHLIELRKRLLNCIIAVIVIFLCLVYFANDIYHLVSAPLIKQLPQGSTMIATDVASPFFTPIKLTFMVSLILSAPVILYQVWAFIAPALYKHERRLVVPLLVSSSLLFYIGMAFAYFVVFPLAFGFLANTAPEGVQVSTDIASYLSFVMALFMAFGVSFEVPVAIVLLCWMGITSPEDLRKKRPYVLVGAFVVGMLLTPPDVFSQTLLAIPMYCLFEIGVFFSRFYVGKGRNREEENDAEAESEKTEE

[4] = biological target: the molecule itself; experiment: crystal structure; SeMet-labelled isolated periplasmic domain; sitting drop, 21 °C, 0.2 M lithium sulphate, 0.1 M Tris pH 8.5, 10% PEG 8000, 10% PEG 1000
[5] = biological target: the molecule itself; experiment: cryo-EM structure; complex assembled in vitro: Ulp1-cut His6-SUMO-MdoD or -CueO mixed with purified E. coli TatBC or TatABC complex overnight at 4 °C, SEC in 50 mM Tris pH 8.0, 200 mM NaCl, 1 mM EDTA, 0.02% GDN; excess substrate
[6] = biological target: T2, E. coli TatBC complex purified by a Twin-Strep tag on TatC (sample of the TatBC-MdoD structure) (Escherichia coli, UniProt P69425 1-171; P69423 1-258); experiment: as above; conditions: both partners purified
T2 construct: TatB of Escherichia coli, as m1; TatC of Escherichia coli, as m5; No TatA density was found; source: E. coli, overexpressed TatABC purified solely by the TatC Twin-Strep tag in GDN; only very low levels of TatA in the purified material; copies: 3 + 3
T2 sequence 1: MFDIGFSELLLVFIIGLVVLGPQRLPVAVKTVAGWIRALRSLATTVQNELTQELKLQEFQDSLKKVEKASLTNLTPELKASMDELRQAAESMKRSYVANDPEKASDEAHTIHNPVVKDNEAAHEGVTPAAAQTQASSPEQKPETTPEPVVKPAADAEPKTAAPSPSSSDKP
T2 sequence 2: T1 chain

[7] = biological target: the molecule itself; experiment: cryo-EM structure; co-expressed TatBC complexes (E. coli, N. salsuginis, M. xanthus) and N. salsuginis TatAC complex, solubilised and purified in GDN
[8] = biological target: T3, E. coli TatC with C-terminal Twin-Strep tag, expressed from a tatABC plasmid (Escherichia coli, UniProt P69423 1-258); experiment: densitometry of Coomassie-stained SDS-PAGE of purified complexes; purified TatABC (TatA_26(His)6_TatBC) and TatBC (TatBC_(His)6) at four dilutions, bands quantified with ImageJ; conditions: both partners purified
T3 construct: TatC of Escherichia coli, PCR from E. coli genomic DNA (DSM 1116); also called TatC_(strep); not shown: Twin-Strep, C-terminal, kept
T3 sequence: T1 chain

[9] = biological target: T3, E. coli TatC with C-terminal Twin-Strep …; experiment: cryo-EM structure; purified E. coli TatABC with an ALFA tag inserted in TatA or TatB, labelled with an anti-ALFA nanobody; 2D class averages and a 6.4 Å map; conditions: both partners purified

N. salsuginis TatC (GFP-His removed) (natural protein)
stoichiometry N [1]: 3

MQRRDFLKYSVALGVASALPLWSRAVFA [E. coli CueO signal peptide (residues 1-28)]
stoichiometry N (signal peptide per TatB and TatC) [2]: 1

B1: E. coli TatC of the His-tagged TatBC complex (TatBC_(His)6), P69423 1-258 (natural protein)
chain: T1 chain
stoichiometry N [3]: 3

B2: M. xanthus TatC periplasmic domain (residues 127-303) (domain or fragment, Myxococcus xanthus, UniProt Q2PHA2 127-303, looked up)
chain: SMFTFLLNEEETLALEQRLDTARLRADDALRFLRLGEAEEAGRIAKETSTQLRAEGQGQAPAPEVAPAASVEMTGRLDGLGRLLDAASVGYGAQSRGVLRQAVEKRVEAVTAYEKKDFAAAAAAMDGSASLLAGIAPTRTEELAGLWRLEKELATAHAAHEAARWTRPMLSMHEQLS
modifications: selenomethionine-labelled
notes: periplasmic domain of TatC of Myxococcus xanthus, residues 127-303; also called M. xanthus insert; source: E. coli B834 (DE3), pET15b, SelenoMethionine media, purified (Ni-NTA, TEV, SEC)
stoichiometry N [4]: 3

B3: E. coli MdoD, full length with its Tat signal peptide (natural protein, Escherichia coli, UniProt P40120 1-551, looked up)
chain: MDRRRFIKGSMAMAAVCGTSGIASLFSQAAFAADSDIADGQTQRFDFSILQSMAHDLAQTAWRGAPRPLPDTLATMTPQAYNSIQYDAEKSLWHNVENRQLDAQFFHMGMGFRRRVRMFSVDPATHLAREIHFRPELFKYNDAGVDTKQLEGQSDLGFAGFRVFKAPELARRDVVSFLGASYFRAVDDTYQYGLSARGLAIDTYTDSKEEFPDFTAFWFDTVKPGATTFTVYALLDSASITGAYKFTIHCEKSQVIMDVENHLYARKDIKQLGIAPMTSMFSCGTNERRMCDTIHPQIHDSDRLSMWRGNGEWICRPLNNPQKLQFNAYTDNNPKGFGLLQLDRDFSHYQDIMGWYNKRPSLWVEPRNKWGKGTIGLMEIPTTGETLDNIVCFWQPEKAVKAGDEFAFQYRLYWSAQPPVHCPLARVMATRTGMGGFSEGWAPGEHYPEKWARRFAVDFVGGDLKAAAPKGIEPVITLSSGEAKQIEILYIEPIDGYRIQFDWYPTSDSTDPVDMRMYLRCQGDAISETWLYQYFPPAPDKRQYVDDRVMS
notes: MdoD of Escherichia coli, precursor with its 32-residue Tat signal peptide; source: E. coli BL21 (DE3) ΔtatABCD ΔtatE, pET28a with N-terminal His6-SUMO, purified (His tag column), cut with Ulp1; not shown: His6, N-terminal, cleaved; SUMO, N-terminal, cleaved
stoichiometry N [5]: 2
stoichiometry N [6]: 3 MdoD per (TatBC)3 complex

B4: E. coli TatB (natural protein, Escherichia coli)
chain: T2 sequence 1
notes: TatB of Escherichia coli, PCR from E. coli genomic DNA (DSM 1116); residues 1-63 modelled in the TatBC structure; source: E. coli MC4100 ΔtatABCD ΔtatE, overexpressed from a plasmid with TatC (and TatA), purified in GDN as part of the complex
binding result [7]: binds
ratio of TatB to TatC in the TatABC complex relative to the TatBC complex [8]: 0.78

B5: E. coli TatA with an inserted ALFA-His tag (natural protein, Escherichia coli, UniProt P69428 1-89, looked up)
chain: MGGISIWQLLIIAVIVVLLFGTKKLGSIGSDLGASIKGFKKAMSDDEPKQDKTSQDADFTAKTIADKQADTNQEQAKTEDAKRHDKEQV
notes: TatA of Escherichia coli; also called TatA_(ALFA); TatA_(ALFA,His); not shown: ALFA, internal (in the cytoplasmic part of TatA), kept
stoichiometry N [9]: 1 TatA per core complex

B6: E. coli TatB with an inserted ALFA-His tag (natural protein, Escherichia coli, UniProt P69425 1-171, looked up)
chain: T2 sequence 1
notes: TatB of Escherichia coli; also called TatB_(ALFA)
stoichiometry N [9]: 2 TatB per core complex

B7: M. xanthus TatC (GFP-His removed) (natural protein, Myxococcus xanthus)
chain: MSLADHLTELRSRLMRCTIAVLILGTISLVFAKPIFGLLMQPVLDALPPENRSLIYTSGIEELNVLMKVGVYCGIFLTTPVILMQIWGFVSPGLYPEERRFAAPFVAFGSIAFLLGAAFCYFAVLPSMFTFLLNEEETLALEQRLDTARLRADDALRFLRLGEAEEAGRIAKETSTQLRAEGQGQAPAPEVAPAASVEMTGRLDGLGRLLDAASVGYGAQSRGVLRQAVEKRVEAVTAYEKKDFAAAAAAMDGSASLLAGIAPTRTEELAGLWRLEKELATAHAAHEAARWTRPMLSMHEQLSLVLLLILAFGIIFELPLVMALLGVVGVVKSSWLFRYQRHAFVVCLIAAAIITPTGDVVNLSLMAGPMLLCYELGVLLVWMVERRRARNSAETGITPAS
notes: TatC of Myxococcus xanthus (ATCC 19368), codon-optimised synthetic gene; has a folded periplasmic insert domain
stoichiometry N [7]: 3
